Experiment: yeast display, Sf9 membrane polyspecificity reagent, FACS + sequencing; frameworks hold sequencing errors
How it was run: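 Galactose induction of a Saccharomyces cerevisiae BJ5465 synthetic nanobody display library ran 36–48 hours. The cells were then stained for 1 hour at 4 °C with 10% biotinylated, detergent-solubilized Sf9 membrane reagent, pulled down on streptavidin microbeads and FACS-sorted into low and high (top ~1%) gates on expression and reagent-binding fluorescence. Labels for polyreactivity follow the gate of origin.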

Row | Sequence | polyreactivity (PSR sort gate)
1 | QVQLVESGGGLVQAGGSLRLSCAASGYIFTTYAMGWYRQAPGKERELVAAISSSGGRTSYADSVKGRFTISRDNAKNTVYLQMNSLKPEDTAVYYCNARVAPKSRRITYGYWGQGTQVTVSS | high polyreactivity
2 | QVQLVESGGGLVQAGGSLRLSCAASGYIFTYYTMGWYRQAPGKERELVAAITSSGSRTRYADSVKGRFTISRDNAKNTVYLQMNSLKPEDTAVYYCAAVYRLKSGVEWRDSQFGYWGQGTQVTVSS | high polyreactivity
3 | QVQLVESGGGLVQAGGSLRLSCAASGYIFVGNAMGWYRQAPGKERELVATIRSSTGNTYADSVKGRFTISRDNAKNTVYLQMNSLKPEDTAVYYCATVYEWPGWGREYGYWGQGTQVTVSS | low polyreactivity
4 | QVQLVESGGGLVQAGGSLRLSCAASGYIFVHYAMGWYRQAPGKERDLVAAITRGGNTYYADSVKGRFTISRDNANNTVNLQMNSLKPEDTAVHYCAADNYGRGAGYDYWGQGSQVTVSS | high polyreactivity
5 | QVQLVESGGGLVQAGGSLRLSCAASGYIFVIYAMGWYSQAPGEERELVAAISWSGDTTYYADSVKGRFTISRDNAKNTVYLQMNSLQPEDTAVFYCNAETAYYQVDYCGQGTQVTVSS | low polyreactivity
6 | QVQLVESGGGLVQAGGSLRLSCAASGYIFVKNAMGWYRQAPGKERELVAAISTRGGRTYYADSVKVRFTISRDNAKNTVSLQMNSLKPEDTAVYYCAAVHHTSYYDANSYGYWGQGTQVTVSS | high polyreactivity
7 | QVQLVESGGGLVQAGGSLRLSCAASGYIFVRNAMGWYRQAPGKEREFVAAISGSGGSTYYADSVKGRFTISRDNAKNTVYFQMNSMKPEDTAVYYCAADYATVTWRGIAYDYWGQGTQVTVSS | low polyreactivity
8 | QVQLVESGGGLVQAGGSLRLSCAASGYIFVWYAMGWSRQAPGKERELVATISGGGGTYYADSVKGRFTISRDNAKNNVYFQMNSLNPEDTAVYYCNKGVGWTEASPYSPEYDYWGQGTQVSVSS | low polyreactivity
9 | QVQLVESGGGLVQAGGSLRLSCAASGYIFVYNAMGWYRQAPGKERELVAAITDGGGSTYADSVKGRFTISRDNAKNTVYLQMNSLNPEDTAVYYCAARYSDTTWYVLYYYWGQGTQVTVSS | low polyreactivity
10 | QVQLVESGGGLVQAGGSLRLSCAASGYIFWINSMGWYRQAPGKERELVAAIRYSTGRTYYADSVKGRFTISRDNAKNTVYLQMNSQKPEDTAVYYCNARSWYIRGSQEYYYWGQGTQLTVSS | high polyreactivity
11 | QVQLVESGGGLVQAGGSLRLSCAASGYIFWWNAMGWYRQAPGKERELVAGISWSGSPTYYADSVKGRFTITRDNAKNTVYLQMNSLKPEDTAVYYCNAAAITLYDYDYWGQGTQVTVSS | low polyreactivity
12 | QVQLVESGGGLVQAGGSLRLSCAASGYIFYDNAMGWYRQAPGKERELVAAISASGGDTYYADSVKGRFTISRDNAKNTVYLQMNSLKPEDTAVYYCAADLITYAMEFWGQGTQVTVSS | low polyreactivity
13 | QVQLVESGGGLVQAGGSLRLSCAASGYIFYFYAMGWYRQAPGKERELVAAITSVGSTKYADSVKGRFTISRDNAKNTVYLQMNSLKPEDTAVYYCAARRWRSYYYWGQGTQVTVSS | high polyreactivity
14 | QVQLVESGGGLVQAGGSLRLSCAASGYIFYHYAMGWYRQAPGKERELVATISLGGGRTYYADSVKGRFTISRDNAKNTVYLQMNSLKPEDTAVYYCAAKQYGYYSDYYYWGQGTQVTVSS | high polyreactivity
15 | QVQLVESGGGLVQAGGSLRLSCAASGYIFYNAMGWYRQAPGKERELVAAISSSGGTTYYADSVKGRFTISRDNAKNTVFLQMNSLKPEDTAVYYCAATFRKRYPSRYDSWGQGTQVTVSS | low polyreactivity
16 | QVQLVESGGGLVQAGGSLRLSCAASGYIFYNYAMGWYRQAPGKERELVAAISRRGGSTYYADSVKGRFTISRDNAKNTVYLEMNSLKPEDTAVYYCAAKQYGWNLYGYWGQGTQVTVSS | high polyreactivity
17 | QVQLVESGGGLVQAGGSLRLSCAASGYIFYRYTMGWYRQAPGKERELVAAISFRGGTTYYADSVKGRFTISRDNAKNTVYLQMNSLKPEDTAVYYCAARYGYYTSDYKYYYWGQGTQVTVSS | high polyreactivity

Source: the nanobody polyreactivity screen of Harvey et al. (2022)
